{"source": "paper PMC4480679", "about": "(Biochemistry, 2015)", "binders": {"B1": {"name": "PhnG (natural protein, E. coli, UniProt P16685 1-150, looked up)", "chain": "MHADTATRQHWMSVLAHSQPAELAARLNALNITADYEVIRAAETGLVQIQARMGGTGERFFAGDATLTRAAVRLTDGTLGYSWVQGRDKQHAERCALIDALMQQSRHFQNLSETLIAPLDADRMARIAARQAEVNASRVDFFTMVRGDNA"}}, "target": "T1, PhnI-his (E. coli, UniProt P16687 1-354)", "T1 sequence (looked up)": "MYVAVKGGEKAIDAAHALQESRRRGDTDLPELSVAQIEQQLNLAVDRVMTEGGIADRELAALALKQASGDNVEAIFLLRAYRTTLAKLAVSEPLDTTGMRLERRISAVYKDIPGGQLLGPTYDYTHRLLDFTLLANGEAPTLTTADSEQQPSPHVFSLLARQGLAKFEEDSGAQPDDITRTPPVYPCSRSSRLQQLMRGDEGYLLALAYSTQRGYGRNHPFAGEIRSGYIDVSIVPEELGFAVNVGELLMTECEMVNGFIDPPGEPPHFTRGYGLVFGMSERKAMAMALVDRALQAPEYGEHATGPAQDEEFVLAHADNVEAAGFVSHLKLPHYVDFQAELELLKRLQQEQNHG", "experiment": "N-terminal Edman sequencing of the purified complex", "data": [{"binder": "B1", "values": [{"measurement": "stoichiometry N", "result": "0.9 ± 0.1", "unit": "PhnG per PhnI"}]}]}
